This passage reports binding signal results from US20200071711, “MODULAR CONSTRUCTION OF SYNTHETIC GENE CIRCUITS IN MAMMALIAN CELLS USING MATHEMATICAL MODELING OF CLOSED LOOP TRANSCRIPTIONAL REPRESSORS” (Tsinghua University, published 2020).

Common to all, as to experiment: cell_activity; HEK293, two sites flanking CMVmini
Common to all, as to conditions: tags: EYFP-2A upstream, SV40 NLS

Series [1] deals with T1, TALER17 (synthetic, UniProt B2SU53 SEQ:1-1010).
T1 chain: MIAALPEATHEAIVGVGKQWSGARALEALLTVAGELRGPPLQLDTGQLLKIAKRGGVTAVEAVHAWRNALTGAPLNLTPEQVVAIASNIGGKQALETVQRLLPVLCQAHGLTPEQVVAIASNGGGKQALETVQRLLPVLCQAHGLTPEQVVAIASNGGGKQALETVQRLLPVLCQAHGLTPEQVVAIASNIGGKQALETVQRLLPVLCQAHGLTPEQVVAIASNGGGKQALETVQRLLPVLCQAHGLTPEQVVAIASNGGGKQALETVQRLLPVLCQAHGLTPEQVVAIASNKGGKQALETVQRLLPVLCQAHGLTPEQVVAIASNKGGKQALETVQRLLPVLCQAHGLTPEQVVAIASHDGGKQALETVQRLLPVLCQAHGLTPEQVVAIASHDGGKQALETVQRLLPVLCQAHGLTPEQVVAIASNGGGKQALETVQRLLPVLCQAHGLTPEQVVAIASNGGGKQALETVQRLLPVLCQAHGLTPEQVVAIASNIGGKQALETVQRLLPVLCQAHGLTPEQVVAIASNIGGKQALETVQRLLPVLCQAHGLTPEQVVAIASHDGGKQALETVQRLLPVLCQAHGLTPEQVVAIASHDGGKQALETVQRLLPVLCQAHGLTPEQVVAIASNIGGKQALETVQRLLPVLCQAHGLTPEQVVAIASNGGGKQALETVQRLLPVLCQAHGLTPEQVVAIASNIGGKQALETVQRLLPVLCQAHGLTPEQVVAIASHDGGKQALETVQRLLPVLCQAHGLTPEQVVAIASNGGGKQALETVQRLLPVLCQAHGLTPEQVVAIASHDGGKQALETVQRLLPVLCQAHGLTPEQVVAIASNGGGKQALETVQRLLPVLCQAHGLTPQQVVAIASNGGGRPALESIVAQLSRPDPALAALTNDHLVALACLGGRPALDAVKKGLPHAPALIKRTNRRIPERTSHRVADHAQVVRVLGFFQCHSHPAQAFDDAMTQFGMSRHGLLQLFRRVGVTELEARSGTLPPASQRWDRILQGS

Series [2] has as its target T2, TALER12 (synthetic, UniProt Q56830 SEQ:262-1344).
T2 chain: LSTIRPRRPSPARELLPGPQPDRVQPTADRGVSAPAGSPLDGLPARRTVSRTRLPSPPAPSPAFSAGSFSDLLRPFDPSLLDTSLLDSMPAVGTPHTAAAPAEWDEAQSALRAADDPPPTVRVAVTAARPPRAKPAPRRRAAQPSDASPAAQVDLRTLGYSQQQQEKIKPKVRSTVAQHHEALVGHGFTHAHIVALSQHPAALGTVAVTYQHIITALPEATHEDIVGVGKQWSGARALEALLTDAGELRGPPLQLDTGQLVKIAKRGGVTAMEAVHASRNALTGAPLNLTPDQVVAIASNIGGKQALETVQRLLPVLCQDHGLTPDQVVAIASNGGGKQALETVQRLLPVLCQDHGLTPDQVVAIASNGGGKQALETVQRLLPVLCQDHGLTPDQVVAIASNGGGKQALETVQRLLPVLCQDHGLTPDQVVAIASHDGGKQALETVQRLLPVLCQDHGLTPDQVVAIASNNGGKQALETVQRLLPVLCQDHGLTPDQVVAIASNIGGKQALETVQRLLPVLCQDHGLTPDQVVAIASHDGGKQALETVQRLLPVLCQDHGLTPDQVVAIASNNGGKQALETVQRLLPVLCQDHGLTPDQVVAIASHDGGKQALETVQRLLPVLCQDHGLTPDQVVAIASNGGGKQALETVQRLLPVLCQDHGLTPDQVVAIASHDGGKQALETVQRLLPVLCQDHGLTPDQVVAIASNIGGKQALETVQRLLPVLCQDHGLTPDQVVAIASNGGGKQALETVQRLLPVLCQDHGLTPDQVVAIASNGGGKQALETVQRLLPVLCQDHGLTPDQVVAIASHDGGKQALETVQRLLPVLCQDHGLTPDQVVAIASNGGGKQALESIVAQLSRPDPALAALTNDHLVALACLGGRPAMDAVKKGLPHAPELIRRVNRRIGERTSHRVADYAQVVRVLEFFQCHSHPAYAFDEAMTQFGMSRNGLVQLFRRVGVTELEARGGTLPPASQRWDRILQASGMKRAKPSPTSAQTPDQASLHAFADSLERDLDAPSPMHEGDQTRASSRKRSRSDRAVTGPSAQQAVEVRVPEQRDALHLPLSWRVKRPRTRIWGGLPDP

For series [3], the target named is T3, TALER15 (synthetic, UniProt B2SU53 SEQ:1-1010).
T3 chain: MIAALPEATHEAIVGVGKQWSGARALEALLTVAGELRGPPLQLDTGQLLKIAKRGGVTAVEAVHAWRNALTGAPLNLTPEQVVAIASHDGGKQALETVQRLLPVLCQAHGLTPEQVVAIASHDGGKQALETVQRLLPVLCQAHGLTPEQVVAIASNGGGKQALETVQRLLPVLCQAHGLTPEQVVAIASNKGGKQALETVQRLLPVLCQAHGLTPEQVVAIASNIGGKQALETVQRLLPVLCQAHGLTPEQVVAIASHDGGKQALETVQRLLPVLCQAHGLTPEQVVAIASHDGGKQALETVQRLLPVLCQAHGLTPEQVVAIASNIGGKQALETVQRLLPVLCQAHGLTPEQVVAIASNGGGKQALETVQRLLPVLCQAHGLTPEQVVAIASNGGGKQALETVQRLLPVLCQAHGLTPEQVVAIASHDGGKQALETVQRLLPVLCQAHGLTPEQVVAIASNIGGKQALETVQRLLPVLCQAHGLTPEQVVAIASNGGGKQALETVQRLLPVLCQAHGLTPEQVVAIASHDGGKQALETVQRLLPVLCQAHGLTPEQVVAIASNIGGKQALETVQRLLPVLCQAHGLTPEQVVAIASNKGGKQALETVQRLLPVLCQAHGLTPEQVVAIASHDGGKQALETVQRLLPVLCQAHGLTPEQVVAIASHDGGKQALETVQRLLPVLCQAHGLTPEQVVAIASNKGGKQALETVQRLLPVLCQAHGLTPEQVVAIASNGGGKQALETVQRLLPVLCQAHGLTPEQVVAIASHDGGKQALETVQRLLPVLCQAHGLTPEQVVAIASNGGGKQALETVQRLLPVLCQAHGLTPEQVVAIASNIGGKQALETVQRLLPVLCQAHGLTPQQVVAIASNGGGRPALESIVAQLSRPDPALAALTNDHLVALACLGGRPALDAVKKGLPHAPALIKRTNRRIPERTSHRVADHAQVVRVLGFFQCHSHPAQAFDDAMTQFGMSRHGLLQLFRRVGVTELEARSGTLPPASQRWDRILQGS

The target in series [4] is T4, TALER20 (synthetic, UniProt B2SU53 SEQ:1-1010).
T4 chain: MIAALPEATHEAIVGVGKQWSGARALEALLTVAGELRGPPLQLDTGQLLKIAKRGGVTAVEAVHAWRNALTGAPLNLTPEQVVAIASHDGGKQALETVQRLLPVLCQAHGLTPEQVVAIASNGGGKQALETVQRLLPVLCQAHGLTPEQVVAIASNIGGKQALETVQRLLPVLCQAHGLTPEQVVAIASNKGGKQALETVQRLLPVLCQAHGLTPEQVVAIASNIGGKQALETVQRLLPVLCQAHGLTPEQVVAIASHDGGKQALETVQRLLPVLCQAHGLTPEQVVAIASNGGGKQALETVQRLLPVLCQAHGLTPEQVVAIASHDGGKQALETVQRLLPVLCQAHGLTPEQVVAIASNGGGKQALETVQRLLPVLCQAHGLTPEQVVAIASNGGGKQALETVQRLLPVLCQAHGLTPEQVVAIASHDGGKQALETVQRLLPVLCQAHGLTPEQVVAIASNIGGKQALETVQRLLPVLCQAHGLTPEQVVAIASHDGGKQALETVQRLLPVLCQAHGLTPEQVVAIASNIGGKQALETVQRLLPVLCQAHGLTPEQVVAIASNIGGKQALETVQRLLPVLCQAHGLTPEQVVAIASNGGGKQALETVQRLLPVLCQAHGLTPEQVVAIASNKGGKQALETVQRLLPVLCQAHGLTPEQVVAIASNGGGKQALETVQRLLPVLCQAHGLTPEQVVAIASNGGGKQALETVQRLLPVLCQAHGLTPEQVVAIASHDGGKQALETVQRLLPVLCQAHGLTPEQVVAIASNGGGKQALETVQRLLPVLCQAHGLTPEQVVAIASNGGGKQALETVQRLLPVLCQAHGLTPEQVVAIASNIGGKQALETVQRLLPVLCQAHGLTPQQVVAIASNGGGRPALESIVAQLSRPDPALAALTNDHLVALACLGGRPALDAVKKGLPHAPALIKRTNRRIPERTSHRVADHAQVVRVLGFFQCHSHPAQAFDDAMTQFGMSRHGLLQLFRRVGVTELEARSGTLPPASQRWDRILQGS

Series [5] addresses T5, TALER18 (synthetic, UniProt B2SU53 SEQ:1-1010).
T5 chain: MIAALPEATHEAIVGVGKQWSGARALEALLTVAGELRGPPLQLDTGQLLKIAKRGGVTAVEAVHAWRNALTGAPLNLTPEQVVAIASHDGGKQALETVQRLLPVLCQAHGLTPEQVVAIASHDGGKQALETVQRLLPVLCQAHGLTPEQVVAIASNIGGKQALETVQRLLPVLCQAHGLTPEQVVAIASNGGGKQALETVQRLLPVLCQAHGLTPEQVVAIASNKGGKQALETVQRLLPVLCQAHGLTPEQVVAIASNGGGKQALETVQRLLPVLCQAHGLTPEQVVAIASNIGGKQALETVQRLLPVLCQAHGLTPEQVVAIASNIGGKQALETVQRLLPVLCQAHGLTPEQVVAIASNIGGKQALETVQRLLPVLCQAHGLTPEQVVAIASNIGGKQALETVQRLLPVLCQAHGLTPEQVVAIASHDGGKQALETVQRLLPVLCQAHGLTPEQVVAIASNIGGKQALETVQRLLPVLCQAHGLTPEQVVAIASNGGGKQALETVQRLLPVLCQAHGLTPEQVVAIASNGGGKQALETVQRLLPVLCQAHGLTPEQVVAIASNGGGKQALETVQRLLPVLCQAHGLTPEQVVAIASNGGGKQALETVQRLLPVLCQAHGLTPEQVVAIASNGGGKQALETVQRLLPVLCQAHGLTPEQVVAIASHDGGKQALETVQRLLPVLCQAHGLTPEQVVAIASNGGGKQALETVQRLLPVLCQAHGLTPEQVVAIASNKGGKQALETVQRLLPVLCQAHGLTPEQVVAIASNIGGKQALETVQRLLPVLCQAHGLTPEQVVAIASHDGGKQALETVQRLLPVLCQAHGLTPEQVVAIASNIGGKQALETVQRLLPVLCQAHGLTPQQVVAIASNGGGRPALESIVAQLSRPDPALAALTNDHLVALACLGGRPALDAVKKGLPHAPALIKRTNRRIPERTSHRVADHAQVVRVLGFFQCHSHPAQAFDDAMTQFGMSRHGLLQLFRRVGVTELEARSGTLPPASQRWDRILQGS

B1: T17 site (dsDNA)
DNA 1: TATTATTGGCCTTAACCATACTCTT
DNA 2: AAGAGTATGGTTAAGGCCAATAATA
In turn, B1 showed a binding signal in series [1] of 195 fold repression.

B2: T12 site (dsDNA)
DNA 1: TATTTCGACGCTCATTCT
DNA 2: AGAATGAGCGTCGAAATA
B2 yielded a binding signal in series [2] of 1220 fold repression.

B3: T15 site (dsDNA)
DNA 1: TCCTGACCATTCATCAGCCGTCTAT
DNA 2: ATAGACGGCTGATGAATGGTCAGGA
B3: in series [3], the binding signal was 13.7 fold repression.

B4: T20 site (dsDNA)
DNA 1: TCTAGACTCTTCACAATGTTCTTAT
DNA 2: ATAAGAACATTGTGAAGAGTCTAGA
B4 registered a binding signal in series [4] of 12.3 fold repression.

B5: T18 site (dsDNA)
DNA 1: TCCATGTAAAACATTTTTCTGACAT
DNA 2: ATGTCAGAAAAATGTTTTACATGGA
The molecule B5 registered a binding signal in series [5] of 18.5 fold repression.
